# Experiments:
# Assay in all cases: holdup assay
# Parameters in all cases: key: below the threshold = too weak to quantify, mostly under pKd 3.1 to 4
# Conditions in all cases: plain residues with an end cap or a label only (N-terminal biotin on a linker: ttds)
# [1] = target: T1, NHERF3_4, Q5T2W1
# T1 sequence (Q5T2W1 373-468, limits assumed, looked up): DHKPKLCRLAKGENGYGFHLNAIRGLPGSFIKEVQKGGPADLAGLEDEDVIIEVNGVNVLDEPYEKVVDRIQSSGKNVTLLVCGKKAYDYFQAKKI
# [2] = target: T2, APBA1_2, Q02410
# T2 sequence (Q02410 742-832, limits assumed, looked up): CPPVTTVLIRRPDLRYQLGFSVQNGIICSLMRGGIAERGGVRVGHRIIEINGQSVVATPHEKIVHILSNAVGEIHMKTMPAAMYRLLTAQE
# [3] = target: T3, GRIP1_7, Q9Y3R0
# T3 sequence (Q9Y3R0 999-1096, limits assumed, looked up): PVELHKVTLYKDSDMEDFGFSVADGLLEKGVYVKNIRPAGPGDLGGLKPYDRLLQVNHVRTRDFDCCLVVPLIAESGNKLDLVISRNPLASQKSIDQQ
# [4] = target: T4, PTPN13_1, Q12923
# T4 sequence (Q12923 1088-1188, limits assumed, looked up): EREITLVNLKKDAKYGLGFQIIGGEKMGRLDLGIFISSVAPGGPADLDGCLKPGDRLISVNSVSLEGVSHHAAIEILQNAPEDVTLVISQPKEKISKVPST
# [5] = target: GRID2IP_2, A4D2P6
# Sequence of GRID2IP_2, A4D2P6 (A4D2P6 272-370): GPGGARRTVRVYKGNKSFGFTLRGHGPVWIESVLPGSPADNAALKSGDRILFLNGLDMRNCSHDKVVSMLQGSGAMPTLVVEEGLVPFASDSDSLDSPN
# [6] = target: T5, PDZD2_2, O15018
# T5 sequence (O15018 329-429, limits assumed, looked up): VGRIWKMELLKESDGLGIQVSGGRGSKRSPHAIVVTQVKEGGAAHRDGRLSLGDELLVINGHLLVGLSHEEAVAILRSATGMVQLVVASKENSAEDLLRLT
# [7] = target: FRMPD4, Q14CM0
# Sequence of FRMPD4, Q14CM0 (Q14CM0 67-160): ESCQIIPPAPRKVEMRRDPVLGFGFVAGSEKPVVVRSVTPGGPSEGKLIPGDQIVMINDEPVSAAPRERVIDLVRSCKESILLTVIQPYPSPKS
# [8] = target: AHNAK1, Q09666
# Sequence of AHNAK1, Q09666 (Q09666 4-100): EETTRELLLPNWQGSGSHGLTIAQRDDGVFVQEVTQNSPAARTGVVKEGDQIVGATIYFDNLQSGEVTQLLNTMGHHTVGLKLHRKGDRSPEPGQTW
# [9] = target: T6, LIN7B, Q9HAP6
# T6 sequence (Q9HAP6 88-185, limits assumed, looked up): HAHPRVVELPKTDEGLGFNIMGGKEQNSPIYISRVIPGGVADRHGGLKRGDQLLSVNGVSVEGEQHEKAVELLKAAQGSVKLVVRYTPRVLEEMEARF
# [10] = target: FRMPD2_1, Q68DX3
# Sequence of FRMPD2_1, Q68DX3 (Q68DX3 770-861): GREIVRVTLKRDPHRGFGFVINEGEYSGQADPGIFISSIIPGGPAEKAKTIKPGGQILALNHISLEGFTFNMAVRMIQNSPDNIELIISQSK
# [11] = target: LNX1_3, Q8TBB1
# Sequence of LNX1_3, Q8TBB1 (Q8TBB1 500-596): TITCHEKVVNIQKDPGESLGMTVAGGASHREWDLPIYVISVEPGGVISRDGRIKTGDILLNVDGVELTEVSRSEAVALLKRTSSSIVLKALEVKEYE
# [12] = target: MAGI2_6, Q86UL8
# Sequence of MAGI2_6, Q86UL8 (Q86UL8 1141-1229): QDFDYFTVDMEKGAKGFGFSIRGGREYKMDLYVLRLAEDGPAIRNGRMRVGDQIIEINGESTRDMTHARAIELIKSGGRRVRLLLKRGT
# [13] = target: T7, MPP2, Q14168
# T7 sequence (Q14168 180-250, limits assumed, looked up): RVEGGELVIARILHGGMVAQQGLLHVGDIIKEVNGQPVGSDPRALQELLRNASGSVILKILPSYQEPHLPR
# [14] = target: T8, MPDZ_12, O75970
# T8 sequence (O75970 1857-1958, limits assumed, looked up): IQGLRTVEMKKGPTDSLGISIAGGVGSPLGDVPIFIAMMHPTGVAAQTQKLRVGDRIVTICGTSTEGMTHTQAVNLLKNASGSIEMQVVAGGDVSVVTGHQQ
# [15] = target: NHERF4_2, Q86UT5
# Sequence of NHERF4_2, Q86UT5 (Q86UT5 220-308): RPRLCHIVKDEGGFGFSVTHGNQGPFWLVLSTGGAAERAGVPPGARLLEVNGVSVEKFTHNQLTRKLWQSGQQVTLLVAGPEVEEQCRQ
# [16] = target: MAGI2_4, Q86UL8
# Sequence of MAGI2_4, Q86UL8 (Q86UL8 772-865): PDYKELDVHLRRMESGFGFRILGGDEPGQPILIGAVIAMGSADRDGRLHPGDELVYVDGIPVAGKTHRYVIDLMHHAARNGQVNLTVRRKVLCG
# [17] = target: PARD3_3, Q8TEW0
# Sequence of PARD3_3, Q8TEW0 (Q8TEW0 582-685): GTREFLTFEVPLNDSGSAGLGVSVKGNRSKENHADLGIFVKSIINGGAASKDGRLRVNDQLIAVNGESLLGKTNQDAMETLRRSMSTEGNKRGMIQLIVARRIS
# [18] = target: SCRIB_3, Q14160
# Sequence of SCRIB_3, Q14160 (Q14160 999-1103): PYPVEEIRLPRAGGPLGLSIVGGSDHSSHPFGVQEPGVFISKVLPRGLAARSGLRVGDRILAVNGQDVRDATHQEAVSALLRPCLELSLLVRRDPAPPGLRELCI
# [19] = target: LIMK2, P53671
# Sequence of LIMK2, P53671 (P53671 143-248): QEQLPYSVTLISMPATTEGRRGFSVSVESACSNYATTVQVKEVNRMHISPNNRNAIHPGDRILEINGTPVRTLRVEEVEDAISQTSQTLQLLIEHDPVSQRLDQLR
# [20] = target: NOS1, P29475
# Sequence of NOS1, P29475 (P29475 9-101): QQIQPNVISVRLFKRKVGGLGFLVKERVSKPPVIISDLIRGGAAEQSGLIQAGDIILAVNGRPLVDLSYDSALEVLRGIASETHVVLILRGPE
# [21] = target: GRIP2_7, Q9C0E4
# Sequence of GRIP2_7, Q9C0E4 (Q9C0E4 934-1023): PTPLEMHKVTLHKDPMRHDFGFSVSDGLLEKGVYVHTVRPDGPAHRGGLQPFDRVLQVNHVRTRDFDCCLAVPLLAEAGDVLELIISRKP
# [22] = target: FRMPD2_2, Q68DX3
# Sequence of FRMPD2_2, Q68DX3 (Q68DX3 944-1038): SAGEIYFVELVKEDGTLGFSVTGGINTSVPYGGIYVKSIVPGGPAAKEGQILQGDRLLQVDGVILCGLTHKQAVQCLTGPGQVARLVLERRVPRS
# [23] = target: T9, DLG3_3, Q92796
# T9 sequence (Q92796 374-475, limits assumed, looked up): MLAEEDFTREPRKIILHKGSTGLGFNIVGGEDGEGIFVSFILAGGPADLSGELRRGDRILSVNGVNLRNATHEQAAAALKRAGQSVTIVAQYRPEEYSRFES
# [24] = target: T10, GRIP1_4, Q9Y3R0
# T10 sequence (Q9Y3R0 467-571, limits assumed, looked up): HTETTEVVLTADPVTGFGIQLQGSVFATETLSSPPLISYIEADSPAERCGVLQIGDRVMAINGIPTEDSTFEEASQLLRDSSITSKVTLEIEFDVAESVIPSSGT
# [25] = target: T11, SNTG2, Q9NY99
# T11 sequence (Q9NY99 68-166, limits assumed, looked up): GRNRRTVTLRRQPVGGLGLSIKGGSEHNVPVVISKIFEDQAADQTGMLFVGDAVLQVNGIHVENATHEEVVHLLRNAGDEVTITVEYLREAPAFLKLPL
# [26] = target: DLG4_2, P78352
# Sequence of DLG4_2, P78352 (P78352 155-259): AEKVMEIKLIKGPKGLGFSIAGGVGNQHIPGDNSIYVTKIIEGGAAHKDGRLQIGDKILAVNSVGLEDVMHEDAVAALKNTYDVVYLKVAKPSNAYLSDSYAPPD
# [27] = target: DLG1_2, Q12959
# Sequence of DLG1_2, Q12959 (Q12959 314-412): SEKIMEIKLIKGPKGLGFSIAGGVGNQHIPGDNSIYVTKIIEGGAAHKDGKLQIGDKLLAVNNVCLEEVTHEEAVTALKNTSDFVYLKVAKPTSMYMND
Binder,pKd [1],pKd [2],pKd [3],pKd [4],pKd [5],pKd [6],pKd [7],pKd [8],pKd [9],pKd [10],pKd [11],pKd [12],pKd [13],pKd [14],pKd [15],pKd [16],pKd [17],pKd [18],pKd [19],pKd [20],also measured
"DEDQHTQITKV [PTEN, P60484]",3.53,4.02,below the threshold,below the threshold,4.03,3.71,below the threshold,below the threshold,3.49,below the threshold,below the threshold,4.07,below the threshold,below the threshold,below the threshold,3.64,3.55,3.94,below the threshold,below the threshold,pKd [21]: 3.55; pKd [22]: 4.19; pKd [23]: 3.71; pKd [24]: below the threshold; pKd [25]: 4.03; pKd [26]: 3.67; pKd [27]: 3.97
"QPGTPTRTAV [MAP2K2, P36507]",below the threshold,3.62,below the threshold,3.66,4.27,3.79,below the threshold,below the threshold,below the threshold,below the threshold,3.67,below the threshold,below the threshold,below the threshold,below the threshold,3.74,3.54,below the threshold,below the threshold,3.96,pKd [21]: below the threshold; pKd [22]: below the threshold; pKd [23]: below the threshold; pKd [24]: below the threshold; pKd [25]: below the threshold; pKd [26]: 4.12; pKd [27]: 3.99
"CNTVTVETVV [MAS1, P04201]",3.54,below the threshold,below the threshold,3.57,below the threshold,3.59,below the threshold,below the threshold,below the threshold,below the threshold,below the threshold,below the threshold,below the threshold,below the threshold,below the threshold,3.49,below the threshold,below the threshold,3.7,below the threshold,pKd [21]: below the threshold; pKd [22]: below the threshold; pKd [23]: below the threshold; pKd [24]: below the threshold; pKd [25]: 3.93; pKd [26]: 4.45; pKd [27]: 4.29
"RRVRKLPSTTL [RPS6KA1, Q15418]",3.65,below the threshold,3.85,below the threshold,5.05,3.55,below the threshold,below the threshold,below the threshold,below the threshold,3.66,below the threshold,below the threshold,below the threshold,below the threshold,3.78,3.71,4.36,below the threshold,3.7,pKd [21]: below the threshold; pKd [22]: below the threshold; pKd [23]: below the threshold; pKd [24]: below the threshold; pKd [25]: 4.54; pKd [26]: below the threshold; pKd [27]: 3.7
